Here are results for 9 molecules from patent US20030049732A1 (Human Genome Sciences, published 2003).

T1: Nod1 (human, UniProt Q9Y239 1-953)
T1 construct: also called wild-type Nod1; WT Nod1
T1 sequence: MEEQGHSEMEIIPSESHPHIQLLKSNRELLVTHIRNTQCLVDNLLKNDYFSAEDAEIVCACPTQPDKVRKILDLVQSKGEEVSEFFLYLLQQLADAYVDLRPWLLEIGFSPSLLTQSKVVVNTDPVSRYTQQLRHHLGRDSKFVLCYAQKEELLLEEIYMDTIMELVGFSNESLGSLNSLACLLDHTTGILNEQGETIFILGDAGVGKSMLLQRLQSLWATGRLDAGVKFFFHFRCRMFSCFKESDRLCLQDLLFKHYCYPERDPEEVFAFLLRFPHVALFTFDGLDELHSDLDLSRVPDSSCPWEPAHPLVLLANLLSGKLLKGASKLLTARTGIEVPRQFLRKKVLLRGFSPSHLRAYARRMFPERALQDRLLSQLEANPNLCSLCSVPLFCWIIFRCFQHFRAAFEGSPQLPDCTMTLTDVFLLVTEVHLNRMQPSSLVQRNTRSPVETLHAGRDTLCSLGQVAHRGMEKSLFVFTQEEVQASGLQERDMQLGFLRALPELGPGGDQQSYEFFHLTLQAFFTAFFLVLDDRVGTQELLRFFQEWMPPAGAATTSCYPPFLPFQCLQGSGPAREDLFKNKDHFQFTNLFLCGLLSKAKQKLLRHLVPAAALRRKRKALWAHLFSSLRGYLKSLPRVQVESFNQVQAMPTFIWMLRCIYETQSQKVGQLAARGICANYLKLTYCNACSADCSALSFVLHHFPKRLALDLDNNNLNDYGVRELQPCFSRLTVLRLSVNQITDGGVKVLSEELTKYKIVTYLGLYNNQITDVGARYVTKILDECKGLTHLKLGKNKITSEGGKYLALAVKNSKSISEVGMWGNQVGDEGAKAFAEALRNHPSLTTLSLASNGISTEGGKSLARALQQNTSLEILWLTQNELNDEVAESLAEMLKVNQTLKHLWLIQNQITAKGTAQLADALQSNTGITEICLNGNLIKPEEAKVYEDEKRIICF

B1: A20 (other, UniProt P21580 1-790, looked up)
chain: MAEQVLPQALYLSNMRKAVKIRERTPEDIFKPTNGIIHHFKTMHRYTLEMFRTCQFCPQFREIIHKALIDRNIQATLESQKKLNWCREVRKLVALKTNGDGNCLMHATSQYMWGVQDTDLVLRKALFSTLKETDTRNFKFRWQLESLKSQEFVETGLCYDTRNWNDEWDNLIKMASTDTPMARSGLQYNSLEEIHIFVLCNILRRPIIVISDKMLRSLESGSNFAPLKVGGIYLPLHWPAQECYRYPIVLGYDSHHFVPLVTLKDSGPEIRAVPLVNRDRGRFEDLKVHFLTDPENEMKEKLLKEYLMVIEIPVQGWDHGTTHLINAAKLDEANLPKEINLVDDYFELVQHEYKKWQENSEQGRREGHAQNPMEPSVPQLSLMDVKCETPNCPFFMSVNTQPLCHECSERRQKNQNKLPKLNSKPGPEGLPGMALGASRGEAYEPLAWNPEESTGGPHSAPPTAPSPFLFSETTAMKCRSPGCPFTLNVQHNGFCERCHNARQLHASHAPDHTRHLDPGKCQACLQDVTRTFNGICSTCFKRTTAEASSSLSTSLPPSCHQRSKSDPSRLVRSPSPHSCHRAGNDAPAGCLSQAARTPGDRTGTSKCRKAGCVYFGTPENKGFCTLCFIEYRENKHFAAASGKVSPTASRFQNTIPCLGRECGTLGSTMFEGYCQKCFIEAQNQRFHEAKRTEEQLRSSQRRDVPRTTQSTSRPKCARASCKNILACRSEELCMECQHPNQRMGPGAHRGEPAPEDPPKQRCRAPACDHFGNAKCNGYCNECFQFKQMYG
B2: IKKb (enzyme, UniProt O14920 1-756, looked up)
chain: MSWSPSLTTQTCGAWEMKERLGTGGFGNVIRWHNQETGEQIAIKQCRQELSPRNRERWCLEIQIMRRLTHPNVVAARDVPEGMQNLAPNDLPLLAMEYCQGGDLRKYLNQFENCCGLREGAILTLLSDIASALRYLHENRIIHRDLKPENIVLQQGEQRLIHKIIDLGYAKELDQGSLCTSFVGTLQYLAPELLEQQKYTVTVDYWSFGTLAFECITGFRPFLPNWQPVQWHSKVRQKSEVDIVVSEDLNGTVKFSSSLPYPNNLNSVLAERLEKWLQLMLMWHPRQRGTDPTYGPNGCFKALDDILNLKLVHILNMVTGTIHTYPVTEDESLQSLKARIQQDTGIPEEDQELLQEAGLALIPDKPATQCISDGKLNEGHTLDMDLVFLFDNSKITYETQISPRPQPESVSCILQEPKRNLAFFQLRKVWGQVWHSIQTLKEDCNRLQQGQRAAMMNLLRNNSCLSKMKNSMASMSQQLKAKLDFFKTSIQIDLEKYSEQTEFGITSDKLLLAWREMEQAVELCGRENEVKLLVERMMALQTDIVDLQRSPMGRKQGGTLDDLEEQARELYRRLREKPRDQRTEGDSQEMVRLLLQAIQSFEKKVRVIYTQLSKTVVCKQKALELLPKVEEVVSLMNEDEKTVVRLQEKRQKELWNLLKIACSKVRGPVSGSPDSMNASRLSQPGQLMSQPSTASNSLPEPAKKSEELVAEAHNLCTLLENAIQDTVREQDQSFTALDWSWLQTEEEEHSCLEQAS
notes: also called IKKβ
B3: FADD (other, UniProt Q13158 1-208, looked up)
chain: MDPFLVLLHSVSSSLSSSELTELKFLCLGRVGKRKLERVQSGLDLFSMLLEQNDLEPGHTELLRELLASLRRHDLLRRVDDFEAGAAAGAAPGEEDLCAAFNVICDNVGKDWRRLARQLKVSDTKIDSIEDRYPRNLTERVRESLRIWKNTEKENATVAHLVGALRSCQMNLVADLVQEVQQARDLQNRSGAMSPMSWNSDASTSEAS
B4: Ced-4 (other, UniProt P30429 1-549, looked up)
chain: MLCEIECRALSTAHTRLIHDFEPRDALTYLEGKNIFTEDHSELISKMSTRLERIANFLRIYRRQASELGPLIDFFNYNNQSHLADFLEDYIDFAINEPDLLRPVVIAPQFSRQMLDRKLLLGNVPKQMTCYIREYHVDRVIKKLDEMCDLDSFFLFLHGRAGSGKSVIASQALSKSDQLIGINYDSIVWLKDSGTAPKSTFDLFTDILLMLKSEDDLLNFPSVEHVTSVVLKRMICNALIDRPNTLFVFDDVVQEETIRWAQELRLRCLVTTRDVEISNAASQTCEFIEVTSLEIDECYDFLEAYGMPMPVGEKEEDVLNKTIELSSGNPATLMMFFKSCEPKTFEKMAQLNNKLESRGLVGVECITPYSYKSLAMALQRCVEVLSDEDRSALAFAVVMPPGVDIPVKLWSCVIPVDICSNEEEQLDDEVADRLKRLSKRGALLSGKRMPVLTFKIDHIIHMFLKHVVDAQTIANGISILEQRLLEIGNNNVSVPERHIPSHFQKFRRSSASEMYPKTTEETVIRPEDFPKFMQLHQKFYDSLKNFACC
B5: NIK (enzyme, UniProt Q99558 1-947, looked up)
chain: MAVMEMACPGAPGSAVGQQKELPKAKEKTPPLGKKQSSVYKLEAVEKSPVFCGKWEILNDVITKGTAKEGSEAGPAAISIIAQAECENSQEFSPTFSERIFIAGSKQYSQSESLDQIPNNVAHATEGKMARVCWKGKRRSKARKKRKKKSSKSLAHAGVALAKPLPRTPEQESCTIPVQEDESPLGAPYVRNTPQFTKPLKEPGLGQLCFKQLGEGLRPALPRSELHKLISPLQCLNHVWKLHHPQDGGPLPLPTHPFPYSRLPHPFPFHPLQPWKPHPLESFLGKLACVDSQKPLPDPHLSKLACVDSPKPLPGPHLEPSCLSRGAHEKFSVEEYLVHALQGSVSSGQAHSLTSLAKTWAARGSRSREPSPKTEDNEGVLLTEKLKPVDYEYREEVHWATHQLRLGRGSFGEVHRMEDKQTGFQCAVKKVRLEVFRAEELMACAGLTSPRIVPLYGAVREGPWVNIFMELLEGGSLGQLVKEQGCLPEDRALYYLGQALEGLEYLHSRRILHGDVKADNVLLSSDGSHAALCDFGHAVCLQPDGLGKSLLTGDYIPGTETHMAPEVVLGRSCDAKVDVWSSCCMMLHMLNGCHPWTQFFRGPLCLKIASEPPPVREIPPSCAPLTAQAIQEGLRKEPIHRVSAAELGGKVNRALQQVGGLKSPWRGEYKEPRHPPPNQANYHQTLHAQPRELSPRAPGPRPAEETTGRAPKLQPPLPPEPPEPNKSPPLTLSKEESGMWEPLPLSSLEPAPARNPSSPERKATVPEQELQQLEIELFLNSLSQPFSLEEQEQILSCLSIDSLSLSDDSEKNPSKASQSSRDTLSSGVHSWSSQAEARSSSWNMVLARGRPTDTPSYFNGVKVQIQSLNGEHLHIREFHRVKVGDIATGISSQIPAAAFSLVTKDGQPVRYDMEVPDSGIDLQCTLAPDGSFAWSWRVKHGQLENRP
notes: also called N1K
B6: Caspase-7 (enzyme, UniProt P55210 1-303, looked up)
chain: MADDQGCIEEQGVEDSANEDSVDAKPDRSSFVPSLFSKKKKNVTMRSIKTTRDRVPTYQYNMNFEKLGKCIIINNKNFDKVTGMGVRNGTDKDAEALFKCFRSLGFDVIVYNDCSCAKMQDLLKKASEEDHTNAACFACILLSHGEENVIYGKDGVTPIKDLTAHFRGDRCKTLLEKPKLFFIQACRGTELDDGIQADSGPINDTDANPRYKIPVEADFLFAYSTVPGYYSWRSPGRGSWFVQALCSILEEHGKDLEIMQILTRVNDRVARHFESQSDDPHFHEKKQIPCVVSMLTKELYFSQ
B7: DEDD (other, UniProt O75618 1-318, looked up)
chain: MAGLKRRASQVWPEEHGEQEHGLYSLHRMFDIVGTHLTHRDVRVLSFLFVDVIDDHERGLIRNGRDFLLALERQGRCDESNFRQVLQLLRIITRHDLLPYVTLKRRRAVCPDLVDKYLEETSIRYVTPRALSDPEPRPPQPSKTVPPHYPVVCCPTSGPQMCSKRPARGRATLGSQRKRRKSVTPDPKEKQTCDIRLRVRAEYCQHETALQGNVFSNKQDPLERQFERFNQANTILKSRDLGSIICDIKFSELTYLDAFWRDYINGSLLEALKGVFITDSLKQAVGHEAIKLLVNVDEEDYELGRQKLLRNLMLQALP
B8: IKKa (enzyme, UniProt O15111 1-745, looked up)
chain: MERPPGLRPGAGGPWEMRERLGTGGFGNVCLYQHRELDLKIAIKSCRLELSTKNRERWCHEIQIMKKLNHANVVKACDVPEELNILIHDVPLLAMEYCSGGDLRKLLNKPENCCGLKESQILSLLSDIGSGIRYLHENKIIHRDLKPENIVLQDVGGKIIHKIIDLGYAKDVDQGSLCTSFVGTLQYLAPELFENKPYTATVDYWSFGTMVFECIAGYRPFLHHLQPFTWHEKIKKKDPKCIFACEEMSGEVRFSSHLPQPNSLCSLVVEPMENWLQLMLNWDPQQRGGPVDLTLKQPRCFVLMDHILNLKIVHILNMTSAKIISFLLPPDESLHSLQSRIERETGINTGSQELLSETGISLDPRKPASQCVLDGVRGCDSYMVYLFDKSKTVYEGPFASRSLSDCVNYIVQDSKIQLPIIQLRKVWAEAVHYVSGLKEDYSRLFQGQRAAMLSLLRYNANLTKMKNTLISASQQLKAKLEFFHKSIQLDLERYSEQMTYGISSEKMLKAWKEMEEKAIHYAEVGVIGYLEDQIMSLHAEIMELQKSPYGRRQGDLMESLEQRAIDLYKQLKHRPSDHSYSDSTEMVKIIVHTVQSQDRVLKELFGHLSKLLGCKQKIIDLLPKVEVALSNIKEADNTVMFMQGKRQKEIWHLLKIACTQSSARSLVGSSLEGAVTPQTSAWLPPTSAEHDHSLSCVVTPQDGETSAQMIEENLNCLGHLSTIIHEANEEQGNSMMNLDWSWLTE
notes: also called IKKα
B9: Caspase-3 (enzyme, UniProt P42574 1-277, looked up)
chain: MENTENSVDSKSIKNLEPKIIHGSESMDSGISLDNSYKMDYPEMGLCIIINNKNFHKSTGMTSRSGTDVDAANLRETFRNLKYEVRNKNDLTREEIVELMRDVSKEDHSKRSSFVCVLLSHGEEGIIFGTNGPVDLKKITNFFRGDRCRSLTGKPKLFIIQACRGTELDCGIETDSGVDDDMACHKIPVEADFLYAYSTAPGYYSWRNSKDGSWFIQSLCAMLKQYADKLEFMHILTRVNRKVATEFESFSFDATFHAKKQIPCIVSMLTKELYFYH

The target in the assay is T1, Nod1. As to the kind of experiment: co-immunoprecipitation, tagged proteins transiently expressed in 293T cells. The source says: The CARD and its structurally related death effector domain (DED) are peptide motifs that mediate interactions between apoptosis-regulatory proteins (Science 281:1301 (1998); Hofmann et al., Trends Biochem. Sci. 22:155 (1998)).
Consider B1, for which the binding result is “no binding”.
For the molecule B2, the binding result is on record as “no binding”.
As for B3, the entry is “no binding”; as for B4, “no binding”.
On to B5, for which the binding result is on record as “no binding”.
Turning to B6, the binding result is recorded as “no binding”.
As for B7, the entry is “no binding”.
The value for B8 was “no binding”; that for B9 was “no binding”.
